Test results published in US20170198014A1 (UNIVERSITY WASHINGTON THROUGH ITS CENTER FOR …, published 2017).

Tests used:
[1] = target: T1, hemagglutinin H3 (A/Hong Kong/1/1968-H3N2) (influenza A virus A/Hong Kong/1/1968 …, UniProt Q91MA7 27-521); assay: BLI (FIG. 5)
[2] = target: T1, hemagglutinin H3 (A/Hong …); assay: BLI (Octet), biotinylated HA on streptavidin sensors
[3] = target: hemagglutinin H1 (A/Solomon Islands/3/2006) (influenza A virus A/Solomon …); assay: as above

Binder | Kd [1] [nM] | Kd [2] [nM] | Kd [3] [nM]
HAA.1 c fused to Hsc1-EA via a triLong linker, trimer (designed binder) MEEVVLITVPSEEVARTIAKALVEERLAACVNIVPGLTSIYRWQGEVVEDQELLLLVKTTTHAFPKLKERVKALHPYTVPEIVALPIAQGNQEYLDWLRENAGGGGSGGSGIVNVPNCNTTKYQQLARTAVAIYNYHEQAHLTFVENLNCKEQGNYYYITLAATDDAGKKAIYEAKIGVVESAGWTGVEEFKLV | < 1 | – | –
Hsc1 (SEQ ID NO:135) fused to HAA.1c (SEQ ID NO:227) via the triLong linker (SEQ ID NO: 352), trimer (designed binder) MEEVVLITVPSEEVARTIAKALVEERLAACVNIVPGLTSIYRWQGEVVEDQELLLLVKTTTHAFPKLKERVKALHPYTVPEIVALPIAQGNQEYLDWLRENAGGGGSGGSGIVNVPNCNTTKYQQLARTAVAIYNYHEQAHLTFVENLNCKEQLGEGDYYYITLAATDDAGKKAIYEAKIGVVESAGWTGVEEFKLV | – | < 1 | < 1
